Measured values: US20060292117A1

Target: serpin enzyme complex receptor (secR) on IB3 cells
Test: cell-based or functional assay

VP1 serpin virus (AAV2 capsid with serpin ligand FVFLI substituted for the capsid sequence immediately after aa 34) (from UniProt P03135 1-34; P03135 40-735; P03135 138-735; P03135 203-735)
infectivity on IB3 cells (hAAT ELISA) against wt capsid: 62 fold
